In paper PMC6969036 (Nature Communications, 2020):

B1: STAND-A36 (s3Flag-scFv-A36-HA) expressed in 293T cells (scFv, V domains shown)
VH: QVQLQQSGAELVRPGALVKLSCKASGFNIEDYYLHWVKQRPAQGLEWIGGIDPENGIAIYDSKFQGKASITADTSSNTAYLQLSSLTSEDTAVYYCATSEDSFDVWGQGTTVTVS
VL: DIELTQSPATMAASPGEKITITCSASSSISSNYLHWYQQKPGFSPKLLIYRTSNLASGVPARFSGSGSGTSYSLTIGTMEAEDVATYYCQQGSSIPLTFGAGTKLEIK
B2: STAND-A36 (s3Flag-scFv-A36-HA), purified from E. coli (scFv, V domains shown)
VH: B1 VH
VL: B1 VL
notes: scFv-A36: VH-(Gly4-Ser)3 linker-VL, from the spleen of Balb/c mice immunised with GST-Syt II-C2A (phage display); s3Flag-scFv-HA constructs were synthesised and codon-optimised (Genscript); also called s3Flag-A36-HA; purified STAND-A36
B3: scFv-T7-A36 (scFv-A36 fused with T7- and His-tags), purified from E. coli (scFv, V domains shown)
VH: B1 VH
VL: B1 VL
notes: scFv-A36: VH-(Gly4-Ser)3 linker-VL; source: E. coli, purified under non-denaturing conditions (Probond nickel-chelating resin); not shown: T7, N-terminal, kept; His6, C-terminal, kept

What was measured:
[1] = biological target: Syt I (synaptotagmin I) expressed in 293T cells (UniProt P46096); assay: cell-based or functional assay
[2] = biological target: T1, GST-Syt I-C2A (C2A domain of synaptotagmin I fused to glutathione S-transferase) (Mus musculus (assumed), UniProt P46096); assay: ELISA; GST-Syt I-C2A (0.25 pmol) coated on wells in PBS, 16 h 24 °C; blocked with 5% skim milk in PBS with 0.1% Tween 20; purified scFv (0.22-36 nM STAND-A36, 1.17-1800 nM scFv-T7-A36, 3.77-601 nM scFv-GFPA36) 2 h at 24 °C; detected with anti-Flag or anti-His; binding to GST wells subtracted; Kd from Hill-Langmuir fit; conditions: both partners purified
T1 construct: synaptotagmin I, C2A domain; its full-length Syt vectors are mouse; also called GST-C2A; source: purified

[3] = biological target: T2, GST-Syt I-C2B (C2B domain of synaptotagmin I fused to GST) (Mus musculus (assumed), UniProt P46096); assay: ELISA; purified STAND-A36 on the indicated GST-fused proteins (GST-C2A, GST-C2B, GST); absorbance, n = 3; conditions: both partners purified
T2 construct: synaptotagmin I, C2B domain; also called GST-C2B; source: purified
T2 sequence (P46096 whole entry, looked up, the tested form may be a part): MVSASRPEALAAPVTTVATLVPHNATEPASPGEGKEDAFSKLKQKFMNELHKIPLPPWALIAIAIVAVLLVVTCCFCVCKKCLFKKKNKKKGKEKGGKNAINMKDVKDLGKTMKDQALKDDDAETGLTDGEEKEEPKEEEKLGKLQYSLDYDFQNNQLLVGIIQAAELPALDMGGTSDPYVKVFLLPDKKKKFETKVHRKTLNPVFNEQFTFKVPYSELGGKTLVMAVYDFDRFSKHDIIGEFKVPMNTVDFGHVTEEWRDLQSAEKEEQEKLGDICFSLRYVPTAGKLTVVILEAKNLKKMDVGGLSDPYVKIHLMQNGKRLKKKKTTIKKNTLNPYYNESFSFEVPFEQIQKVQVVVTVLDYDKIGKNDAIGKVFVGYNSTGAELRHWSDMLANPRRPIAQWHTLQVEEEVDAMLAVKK

Sequence of Syt I (synaptotagmin I) expressed in 293T cells (P46096 whole entry, the tested form may be a part): as the sequence (P46096 whole entry, looked up, the tested form may be a part) above

Binder | basal dopamine release in the striatum of mice expressing STAND-A36 (microdialysis), inhibition relative to mice expressing STAND-M4 [1] | high potassium (60 mM)-induced dopamine release in cultured dopamine neurons infected with AAV1-STAND-A36, relative to STAND-M4 [1] | Kd [2] | binding result [3]
B1 | 55.3% | 79.3% |  | 
B2 |  |  | 12.2 nM | no binding
B3 |  |  | 341 nM | 
